Data set [1] is described as follows: nESI-MS relative populations of oligomeric forms. Type of data set: physicochemical, human. The settings on record: 6-15 µM protein, 150 mM ammonium acetate, pH 7.4, estimated error 5% (SD of 3-4 independent experiments). As for the experimental part: Prior to MS analysis, samples were buffer exchanged into 150 mM ammonium acetate, pH 7.4, using Micro Bio-spin 6 columns (Bio-Rad, Digilab Division, Cambridge, MA, USA). For all the experiments protein concentrations ranging from 6 to 18 µM were used. In the case of the substrate binding experiments, proteins were analyzed in the presence of a 1: 1 molar ratio of the NR peptide; this substrate concentration, lower than in the SEC experiments, was chosen to ensure adequate resolution of the various charge state series, which is critical for unambiguous assignment of substrate-bound states. Due to suppression effects during nESI ionization, a relatively limited set of molar ratios could be investigated by in this way.
nESI-MS spectra were obtained according to a previously published protocol on an orthogonal time-of-flight mass spectrometer with a Z-spray source (LCT, Waters, Manchester, UK) in positive ion mode using the following parameters: capillary voltage, 1500 V; sample cone voltage, 120 V (unless otherwise specified); extraction cone voltage, 1V; and ion transfer stage pressure, 8.8 mbar. Spectra were calibrated externally using a 33 mg/ml solution of cesium iodide. Data were acquired and processed with MassLynx software (Waters, Manchester, UK), and are shown with minimal smoothing and without background subtraction. The relative abundances of the different oligomeric states were estimated from the intensities of the most abundant charge states for each construct and are expressed as a percentage of the total intensity.

Data set [2] can be described thus: Analytical SEC relative populations of oligomeric forms. It is filed as physicochemical, human. The following applies: Superdex 75, 4 °C, 50 mM Tris pH 7.4, 150 mM KCl. As for the experimental part: (§1) Analytical SEC was performed at 4 °C using a Superdex 75 10/300 GL column (GE Healthcare LifeSciences, Little Chalfont, U.K.), which had previously been calibrated using a mixture of standard proteins (Gel Filtration LMW Calibration Kit; GE Healthcare LifeSciences, Little Chalfont, U.K.). Typically, samples of the various constructs contained 70 µM of protein in 50 mM Tris buffer at pH 7.4, with 150 mM KCl, 5 mM MgCl2 and were incubated for 15 min (unless otherwise specified) at room temperature before being loaded onto the column for analysis. To evaluate the reversibility of the oligomerization process, the different elution peaks obtained for each protein variant were subsequently analyzed after concentrating the different fractions using AmiconUltra-0.5, Ultracel-3 Membrane, 3 kDa (Millipore, Bedford, MA, USA). A similar analysis was also performed at 6 µM concentration for all the protein variants to allow for a direct comparison between the results obtained by SEC and MS experiments.
The influence of substrate binding on the oligomerization properties of all the variants was examined by using the well-characterized Hsp70 substrate, the NR peptide (NRLLLTG, Genemed Synthesis Inc., San Antonio, TX, USA). A 14-fold excess of the peptide was added in each case to a fresh protein sample, incubated for 1 h at room temperature, unless otherwise specified, and then loaded onto the Superdex 75 10/300 GL column for analysis. The relative quantities of the different protein species were estimated by analysing the chromatographic profile using a Gaussian function for each elution peak (OriginPro 8, Originlab, Northampton, MA, USA) and measuring the relative area under each peak.

Data set [3] in a line: Thermal denaturation monitored by far-UV CD. Type of data set: physicochemical, human. As for the experimental part: Protein structural stability was analyzed by monitoring the CD signal at 222 nm upon thermal denaturation. Thermal runs were performed from 5 to 90 °C at a rate of 1 °C. min^-1. Data points were acquired every 0.1 °C with a response time of 2 s and a bandwidth of […]. After thermal denaturation, each protein sample was cooled to the starting temperature, and a second denaturation curve recorded in order to analyse the degree of reversibility of the denaturation process. Analysis of the thermal unfolding curves was performed assuming a three-state unfolding model.

A short description of data set [4]: Secondary structure content from far-UV CD. It is filed as physicochemical, human. The settings on record: K2D software; 20 µM protein, 7 mM Tris pH 7.4, 170 mM KCl, 5 mM MgCl2; 25 °C. As for the experimental part: Far-UV CD spectra for all protein variants were recorded using a Jasco J-810 spectropolarimeter equipped with a Peltier holder, using a 0.1 cm path length cuvette. Typically, samples contained 20 µM protein in 7 mM Tris buffer at pH 7.4, containing 170 mM KCl and 5 mM MgCl2. The far-UV CD spectra of all the variants in their native, thermally denatured and refolded states were recorded from 198 to 250 nm, and the spectrum of the buffer was systematically subtracted from the spectra of all protein samples. The secondary structure content was estimated from the far-UV CD spectrum for each protein variant using K2D software.

The nature of data set [5]: Tryptophan (W580) fluorescence emission. Type of data set: physicochemical, human. The following applies: W580, excitation 295 nm. The procedure: Steady-state tryptophan fluorescence emission spectra of native, thermally denatured and refolded proteins were recorded from 300 to 400 nm, selectively exciting the only tryptophan residue in the SBD (W580) at 295 nm, using a Cary Eclipse spectrofluorimeter (Varian, Palo Alto, CA, USA). Excitation and emission band-passes were set to 5 nm each.

Data set [6] can be described thus: Analytical SEC, Stokes radius and oligomeric state. It is filed as physicochemical, human. The procedure:
as §1

For data set [7] the following is noted: previously reported; ref [S3]; cited from earlier work. As for the experimental part:
Supplementary file pone.0067961.s005.tif: Figure S4 Concentration dependency of the analytical SEC chromatograms of the 'C-term' variant. The protein concentrations used were 1µM (black line), 2µM (orange line), 5 µM (pink line), 10 µM (cyan line), 70 µM (red line) and 125 µM (green line). Essentially the same elution profile was found for all the protein concentrations used. At the top the chromatogram the previously reported Stokes radii of the standard proteins used to calibrate the column are reported: conalbumin (40.4 Å), ovalbumin (30.5 Å), carbonic anhydrase (23.6 Å) [S3], ribonuclease ...

Setting [8] is: 70 µM protein, 5 mM MgCl2, 15 min at room temperature, estimated error 3.5% (SD of 3-4 independent experiments).
Where [9] appears, read: 6-15 µM protein, 5 mM MgCl2, estimated error 3.5% (SD of 3-4 independent experiments).

The values that follow come from PMC3696110, “Hsp70 Oligomerization Is Mediated by an Interaction between the Interdomain Linker and the Substrate-Binding Domain” (PLoS ONE, 2013).

B1: C-term: truncated human Hsp70 (540-641), C-terminal segment of helix B, helices C-E and disordered C-terminal region (protein, UniProt P0DMV8 540-641, looked up, fragment)
chain: NALESYAFNMKSAVEDEGLKGKISEADKKKVLDKCQEVISWLDANTLAEKDEFEHKRKELEQVCNPIISGLYQGAGGPGPGGFGAQGPKGGSGSGPTIEEVD
B1: in data set [1], the Dimer population is on record as 0%, the Total oligomer population is listed as 0% and the Trimer population is listed as 0%. In data set [2] (setting [8]), the Dimer population was 0%, the Monomer population is 100% and the Total oligomer population was 0%. Moreover, in data set [2] (setting [9]), the Dimer population was 0%, the Monomer population is recorded as 100% and the Total oligomer population is on record as 0%. In data set [3] (CD 222 nm, 20 µM protein, 7 mM Tris pH 7.4, 170 mM KCl, 5 mM MgCl2, three-state fit (C-term two-state), SE of fit), the “∆Hm, 1st transition” value is 51.5 ± 1.5 kcal/mol. Besides, the “Tm, 1st transition” value in data set [3] (CD 222 nm, 5 to 90 °C at 1 °C/min, 20 µM protein, 7 mM Tris pH 7.4, 170 mM KCl, 5 mM MgCl2, three-state fit (C-term two-state), SE of fit) is 49.9 ± 0.2 °C. In addition, the “Reversibility of thermal unfolding” value in data set [3] (far-UV CD, second denaturation curve after cooling) is given as “reversibly”. For the same molecule, in data set [4], the “Random-coil content estimated from far-UV CD” value is recorded as 33%, the “α-helix content estimated from far-UV CD” value is recorded as 60% and the “β-sheet content estimated from far-UV CD” value is listed as 7%. The “Red-shift of fluorescence emission maximum, native to refolded” value in data set [5] is “not observed”. For the same molecule, the Oligomeric state result in data set [6] (analytical SEC, 1 to 125 µM, single elution peak at 11.8 ml) is listed as “monomeric”. The molecule further displayed a Stokes radius in data set [6] (analytical SEC, from retention volume) of 21.4 Å. The “Ability to dimerize in isolation” value in data set [6] (under experimental conditions used) is “unable to dimerize in isolation”.

B2: ovalbumin: SEC standard protein (protein, UniProt P01012 2-386, looked up)
Ovalbumin: GSIGAASMEFCFDVFKELKVHHANENIFYCPIAIMSALAMVYLGAKDSTRTQINKVVRFDKLPGFGDSIEAQCGTSVNVHSSLRDILNQITKPNDVYSFSLASRLYAEERYPILPEYLQCVKELYRGGLEPINFQTAADQARELINSWVESQTNGIIRNVLQPSSVDSQTAMVLVNAIVFKGLWEKAFKDEDTQAMPFRVTEQESKPVQMMYQIGLFRVASMASEKMKILELPFASGTMSMLVLLPDEVSGLEQLESIINFEKLTEWTSSNVMEERKIKVYLPRMKMEEKYNLTSVLMAMGITDVFSSSANLSGISSAESLKISQAVHAAHAEINEAGREVVGSAEAGVDAASVSEEFRADHPFLFCIKHIATNAVLFFGRCVSP
Consider B2, for which the “Stokes radius of SEC standard protein” value in data set [7] is 30.5 Å.

B3: ribonuclease A: SEC standard protein (protein, UniProt P61823 27-150, looked up)
Ribonuclease pancreatic: KETAAAKFERQHMDSSTSAASSSNYCNQMMKSRNLTKDRCKPVNTFVHESLADVQAVCSQKNVACKNGQTNCYQSYSTMSITDCRETGSSKYPNCAYKTTQANKHIIVACEGNPYVPVHFDASV
For the molecule B3, in data set [7], the “Stokes radius of SEC standard protein” value is on record as 16.4 Å.

B4: conalbumin: SEC standard protein (protein, UniProt P02789 20-705, looked up)
Ovotransferrin: APPKSVIRWCTISSPEEKKCNNLRDLTQQERISLTCVQKATYLDCIKAIANNEADAISLDGGQAFEAGLAPYKLKPIAAEVYEHTEGSTTSYYAVAVVKKGTEFTVNDLQGKTSCHTGLGRSAGWNIPIGTLLHRGAIEWEGIESGSVEQAVAKFFSASCVPGATIEQKLCRQCKGDPKTKCARNAPYSGYSGAFHCLKDGKGDVAFVKHTTVNENAPDQKDEYELLCLDGSRQPVDNYKTCNWARVAAHAVVARDDNKVEDIWSFLSKAQSDFGVDTKSDFHLFGPPGKKDPVLKDLLFKDSAIMLKRVPSLMDSQLYLGFEYYSAIQSMRKDQLTPSPRENRIQWCAVGKDEKSKCDRWSVVSNGDVECTVVDETKDCIIKIMKGEADAVALDGGLVYTAGVCGLVPVMAERYDDESQCSKTDERPASYFAVAVARKDSNVNWNNLKGKKSCHTAVGRTAGWVIPMGLIHNRTGTCNFDEYFSEGCAPGSPPNSRLCQLCQGSGGIPPEKCVASSHEKYFGYTGALRCLVEKGDVAFIQHSTVEENTGGKNKADWAKNLQMDDFELLCTDGRRANVMDYRECNLAEVPTHAVVVRPEKANKIRDLLERQEKRFGVNGSEKSKFMMFESQNKDLLFKDLTKCLFKVREGTTYKEFLGDKFYTVISSLKTCNPSDILQMCSFLEGK
As for B4, the “Stokes radius of SEC standard protein” value in data set [7] is reported as 40.4 Å.
